Test results reported in paper PMC9670587.

Tests used:
FcγRIIA = FcγRIIA (UniProt P12318)
FcγRIIIA = FcγRIIIA (UniProt P08637)
UniProt P08637, sequence (P08637 17-254): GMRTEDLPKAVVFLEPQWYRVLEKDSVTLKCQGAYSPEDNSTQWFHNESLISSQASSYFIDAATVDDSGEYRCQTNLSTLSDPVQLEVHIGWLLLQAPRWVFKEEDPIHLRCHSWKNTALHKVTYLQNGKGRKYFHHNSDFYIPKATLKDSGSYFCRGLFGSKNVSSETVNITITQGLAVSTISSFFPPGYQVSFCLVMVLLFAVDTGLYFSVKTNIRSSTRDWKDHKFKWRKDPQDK

UniProt P12318, sequence (P12318 34-317): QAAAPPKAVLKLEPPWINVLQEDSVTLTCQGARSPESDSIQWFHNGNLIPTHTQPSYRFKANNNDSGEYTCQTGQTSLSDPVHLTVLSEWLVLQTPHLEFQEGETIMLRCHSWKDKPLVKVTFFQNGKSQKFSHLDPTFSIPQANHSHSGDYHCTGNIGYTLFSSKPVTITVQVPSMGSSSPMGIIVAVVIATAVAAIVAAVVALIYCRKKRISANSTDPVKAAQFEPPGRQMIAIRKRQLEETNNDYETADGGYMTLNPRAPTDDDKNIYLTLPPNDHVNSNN

IMM01, recombinant SIRPα-Fc fusion protein
antibody-dependent cellular phagocytosis (ADCP), EC50 (FcγRIIA): 0.139 nM | antibody-dependent cellular phagocytosis (ADCP), EC50 (FcγRIIIA): 0.139 nM
